# Results: US20230102344A1
# Substitutions are numbered along the chain they refer to.
# B1: BJM0498 (scFv, part only; not given: Fc scaffold making it bivalent, part only)
# scFv, part: QVQLVQSGAEVKKPGSSVKVSCKASGTDFKLTYIHWVRQAPGQGLEWMGRIFPGSGNVKYNEKFKGRVTITADTSTSTAYMELSSLRSEDTAVYYCAGSYYSYDVLDYWGQGTTVTVSSGGGGSGGGGSGGGGSGGGGSDIQMTQSPSFLSASVGDRVTITCKASQNVDNRVAWYQQKPGKAPKALIYSSSHRYKGVPSRFSGSGSGTEFTLTISSLQPEDFATYFCQQFKSYPLTFGQGTKLEIK
# B2: BJM0901 (bispecific antibody, not shown: a dimerising Fc or GST; large carriers)
# heavy: QVQLVQSGAEVKKPGSSVKVSCKASGTDFKLTYIHWVRQAPGQGLEWMGRIFPGSGNVKYNEKFKGRVTITADTSTSTAYMELSSLRSEDTAVYYCAGSYYSYDVLDYWGQGTTVTVSSGGGGSGGGGSGGGGSGGGGSDIQMTQSPSFLSASVGDRVTITCKASQNVDNRVAWYQQKPGKAPKALIYSSSHRYKGVPSRFSGSGSGTEFTLTISSLQPEDFATYFCQQFKSYPLTFGQGTKLEIKGGGGSQVQLVQSGAEVKKPGSSVKVSCKASGYTFTDYNMHWVRQAPGQGLEWIGYIYPYNGGTGYNQKFKSKATITADESTNTAYMELSSLRSEDTAVYYCARGRPAMDYWGQGTLVTVSS
# light: DIQMTQSPSSLSASVGDRVTITCRASESVDNYGISFMNWFQQKPGKAPKLLIYAASNQGSGVPSRFSGSGSGTDFTLTISSLQPDDFATYYCQQSKEVPWTFGQGTKVEIK
# B3: A-H.13 (scFv)
# scFv: B1 scFv, part
# B4: A-H.68 (scFv, not shown: a dimerising Fc or GST)
# scFv: B1 scFv, part with T27H, K30R, F52S, P53A, G98V, D169A, N170D
# B5: BJM0502 (scFv, part only; not given: Fc scaffold making it bivalent, part only)
# scFv, part: B1 scFv, part with T27H, K30H, T32W, I51V, F52S, P53A, R171K, Y175H
# B6: A-H.59 (scFv)
# scFv: B1 scFv, part with T27H, K30R, F52Y, P53A, G98V, D169A, N170D, A173V, Y175H
# B7: A-H.61 (scFv)
# scFv: B1 scFv, part with T27H, I51V, F52S, P53A, V58T, G98V, Y175H
# B8: A-H.60 (scFv)
# scFv: B1 scFv, part with T27H, I51V, F52S, P53A, V58T, G98V, D169G, N170D, Y175H
# B9: A-H.62 (scFv)
# scFv: B1 scFv, part with T27H, K30R, I51V, F52S, P53A, G98V, D169A, N170D, A173V, Y175H
# B10: A-H.64 (scFv)
# scFv: B1 scFv, part with T27H, I51V, F52S, P53A, V58T, G98V, D169A, N170D, A173V, Y175H
# B11: A-H.66 (scFv)
# scFv: B1 scFv, part with T27H, F52Y, P53A, V58T, G98V, D169G, N170D, A173V, Y175H
# B12: A-H.65 (scFv)
# scFv: B1 scFv, part with T27H, F52S, P53A, V58T, G98V, D169G, N170D, A173V, Y175H
# B13: A-H.58 (scFv)
# scFv: B1 scFv, part with T27H, K30R, I51V, F52S, P53A, G98V, D169G, A173V, Y175H
# B14: A-H.63 (scFv)
# scFv: QVQLVQSGAEVKKPGSSVKVSCKASGHDFRLTYIHWVRQAPGQGLEWMGRVYAGSGNTKYNEKFKGRVTITADTSTSTAYMELSSLRSEDTAVYYCAVSYYSYDVLDYWGQGTTVTVSSGGGGSGGGGSGGGGSGGGGSDIQMTQSPSFLSASVGDRVTITCKASQNVEDRVVWHQQKPGKAPKALIYSSSHRYKGVPSRFSGSGSGTEFTLTISSLQPEDFATYFCQQFKSYPLTFGQGTKLEIK
# B15: A-H.57 (scFv)
# scFv: B14 scFv with Y52S, E169G
# B16: BJM0501 (scFv, part only; not given: Fc scaffold making it bivalent, part only)
# scFv, part: B1 scFv, part with T27H, K30R, F52S, P53A, D169A, N170D
# B17: BJM0897 (antibody, V domains shown)
# VH: QVQLVQSGAEVKKPGSSVKVSCKASGTDFKLTYIHWVRQAPGQGLEWMGRIFPGSGNVKYNEKFKGRVTITADTSTSTAYMELSSLRSEDTAVYYCAGSYYSYDVLDYWGQGTTVTVSS
# VL: DIQMTQSPSFLSASVGDRVTITCKASQNVDNRVAWYQQKPGKAPKALIYSSSHRYKGVPSRFSGSGSGTEFTLTISSLQPEDFATYFCQQFKSYPLTFGQGTKLEIK
# B18: BJM0912 (antibody, V domains shown)
# VH: B17 VH with T27H, K30H, T32W, I51V, F52S, P53A
# VL: B17 VL with R32K, Y36H
# B19: BJM0899 (antibody, V domains shown)
# VH: B17 VH with T27H, K30R, F52S, P53A
# VL: B17 VL with D30A, N31D
# B20: A-H.67 (scFv)
# scFv: B1 scFv, part with G98V
# B21: A-H.23 (scFv, not shown: a dimerising Fc or GST)
# scFv: B1 scFv, part with T27H, K30R, F52S, P53A, D169A, N170D
# B22: A-H.24 (scFv)
# scFv: B1 scFv, part with T27H, K30H, T32W, I51V, F52S, P53A, R171K, Y175H
# Molecular target: human TCRvβ (BIM0444) (human)
# Assay: SPR (Biacore), Table 21; set-up not restated
# Chain of human TCRvβ (BIM0444) (human) (A0A0K0K1A5 22-114): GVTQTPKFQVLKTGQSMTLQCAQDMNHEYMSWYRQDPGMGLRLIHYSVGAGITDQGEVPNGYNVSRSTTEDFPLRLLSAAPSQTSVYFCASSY
row,Kd,Binder
1,7.9 nM,B1
2,7.09 nM,B2

# Molecular target: cynomolgus TCRvβ (BJM0847) (cynomolgus)
# Assay: SPR (Biacore), Table 21; set-up not restated
row,Kd,Binder
1,86 nM,B1
2,55 nM,B2

# Molecular target: cynomolgus TCRvβ (BJM0847) (cynomolgus)
# Assay: SPR (Biacore): antibody amine-coupled to CM5, BJM0847 as analyte, 1:1 fit
row,Kd,Binder
1,173 nM,B3
2,59 nM,B4

# Molecular target: cynomolgus TCRvβ (BJM0847) (cynomolgus)
# Assay: SPR (Biacore): antibody captured on Protein L chip, BJM0847 as analyte, 1:1 fit
row,Kd,Binder
1,387 nM,B5
2,5 nM,B6
3,0.607 nM,B7
4,1.6 nM,B8
5,86 nM,B1
6,0.766 nM,B9
7,1 nM,B10
8,2.2 nM,B11
9,0.725 nM,B12
10,0.158 nM,B13
11,5.8 nM,B14
12,0.762 nM,B15
13,87 nM,B16
14,69 nM,B17
15,326 nM,B18
16,130 nM,B19

# Molecular target: human TCRvβ (BIM0444) (human)
# Assay: SPR (Biacore): antibody captured via anti-human Fc on CM5, BIM0444 as analyte, 1:1 fit
row,Kd,Binder
1,20 nM,B5
2,0.323 nM,B6
3,20 nM,B20
4,0.349 nM,B7
5,1.7 nM,B21
6,0.445 nM,B8
7,7.9 nM,B1
8,0.447 nM,B9
9,0.486 nM,B10
10,0.338 nM,B11
11,0.396 nM,B12
12,12 nM,B22
13,0.491 nM,B13
14,3.8 nM,B3
15,0.274 nM,B14
16,0.469 nM,B15
17,4.1 nM,B16
18,0.829 nM,B4
19,7.2 nM,B17
20,28 nM,B18
21,3.7 nM,B19

# Molecular target: cynomolgus TCRvβ (BJM0847) (cynomolgus)
# Assay: SPR (Biacore), comparison with the parental antibody
row,fold improvement of affinity compared to the parental antibody,Binder
1,6 fold,B1
2,6 fold,B16
